Assay: yeast display, Sf9 membrane polyspecificity reagent, FACS + sequencing; frameworks hold sequencing errors
Summary of the method: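 Nanobodies came from a synthetic yeast display library in Saccharomyces cerevisiae BJ5465, induced with galactose for 36–48 hours and stained for 1 hour at 4 °C with 10% biotinylated, detergent-solubilized Sf9 membrane reagent. Cells were enriched on streptavidin microbeads and then FACS-sorted, with low and high (top ~1%) gates set on anti-HA fluorescence for expression and streptavidin fluorescence for reagent binding. Each polyreactivity label reflects the gate a clone came from. Genes were amplified by colony PCR, sequenced by MiSeq 2 × 250 and filtered by CDR length.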

| Sequence | polyreactivity (PSR sort gate) |
| --- | --- |
| QVQLVESGGGLVQAGGSLRLSCAASGSTFYPYAMGWYRQAPGKERELVAAISLSDTITYYADSVKGRFTISRDNAKNTVYLQMNSLKPEDTAVYYCAAETPGFVLYEYWGQGTQVTVSS | high polyreactivity |
| QVQLVESGGGLVQAGGSLRLSCAASGSTFYPYAMGWYRQAPGKERELVADITNSGSTYYADSVKGRFTISRDNAKNTVYLQMNCLKPEDTAVYYCSASVYSVADYYYWGQGTQVTVSS | low polyreactivity |
| QVQLVESGGGLVQAGGSLRLSCAASGSTFYPYAMGWYRQAPGKERELVAGIRSGGSTNYADSVKGRFTISRDNAKNTVYLQMNSLKPEDTAVYYCAARRWRTQDRSHFDYWGQGTQVTVSS | low polyreactivity |
| QVQLVESGGGLVQAGGSLRLSCAASGSTFYPYAMGWYRQAPGKERELVASISSRGGTTYYADSVKGRFTISRDNAKNTVYLQMNSLKPEDTAVYYCAARLTYAERKWPTKYYWGQGTQVTVSS | high polyreactivity |
| QVQLVESGGGLVQAGGSLRLSCAASGSTFYPYTMGWYRQAPGKERELFAAITSGGNTNYADSVKGRFTISRDNAKNTVYLQMNSLKPEDTAVYYCNAEPEGTTGNYFPYDYWGQGTQVTVSS | low polyreactivity |
| QVQLVESGGGLVQAGGSLRLSCAASGSTFYPYTMGWYRQAPGKERELVAAITSGGNTNYADSVKGRFTISRDNAKNTVYLQMNSLKPEDTAVYYCNAEPEGTTGNYFPYDYWGQGTQVTVSS | low polyreactivity |
| QVQLVESGGGLVQAGGSLRLSCAASGSTFYQNAMGWYRQAPGKEMELVAAISSSGRTYYADSVKGRFTISRDNAKNTVFLQMNSLKPEDTAVYYCAFGAYGSLYSIRVAYGRMDYWGQGTQVTVSS | high polyreactivity |
| QVQLVESGGGLVQAGGSLRLSCAASGSTFYQYAMGWYRQAPGKERELGAAITRSGGSTYYADSVKGRFTISRDNAKNTVYLQMNSLKPEDPAVYYCAADRARRGIRDYYWGQGTQVTVSS | high polyreactivity |
| QVQLVESGGGLVQAGGSLRLSCAASGSTFYQYVMGWYRQAPGKERELVAAISGSGGSTYYADSVKGRFTISRDNAKNTVYLQMNSLKPEDTAVYYCAAVGRSKRDGYWGQGTQVTVSS | high polyreactivity |
| QVQLVESGGGLVQAGGSLRLSCAASGSTFYRFAMGWYRTAPGKERELVAAISRSGGSTYYADTVKGRFTISRDNAKNTVYLQMNSLKPEDTAVYYCAAQYTFYYRSWSDYWGQGTQVTVSS | high polyreactivity |
| QVQLVESGGGLVQAGGSLRLSCAASGSTFYRNAMGWYRQAPGKERELVAAIRKTGGSTHYADSVKGRFTISRDNAKNTVYLQMNSLKPEDTAVYYCNATYIYGWYNYWGQGTQVTVSS | low polyreactivity |
| QVQLVESGGGLVQAGGSLRLSCAASGSTFYRNAMGWYRQAPGKERELVAGISWRGGSTYYADSVKGRFTISRDNAKNTVYLQMNSLKPEDTAVYYCNTLGAGGYSSPADYYYWGQGTQVTVSS | high polyreactivity |
| QVQLVESGGGLVQAGGSLRLSCAASGSTFYRNAMGWYRQAPGKERELVATINRGGSTYYADSVKGRFTISRDNAKNTVYLQRNSLNPEDTAVYYCAKDSYYAGRFIYTPRAKYGYWGQGTQVTVSS | high polyreactivity |
| QVQLVESGGGLVQAGGSLRLSCAASGSTFYRNARAWYRQAPGKERELVAGISYGGGSTYYADSVKGRFTISRDNAKNTVYLQMNSLKPEDTAVYYCNAVWVKRHYYYWGQGSQVTVSS | low polyreactivity |
| QVQLVESGGGLVQAGGSLRLSCAASGSTFYRNTMGWYRQAPGKERELVAAISRTGASTHYADSVKGRFTISRDNAKNTVYLQMNSLKPEDTAVYYCNAVPAIGKYYGGGYWGQGTQVTVSS | high polyreactivity |
| QVQLVESGGGLVQAGGSLRLSCAASGSTFYRYAKGRYRQPPGKERELVASITRNVGSTYYADSVKGRFTISRDNAKNTVYLQMKSVKPEDTAVYFCAAKSGSFVHGGYQTPVYGSDYWGQGSQVTVSS | high polyreactivity |
| QVQLVESGGGLVQAGGSLRLSCAASGSTFYRYAMGWYRQAPGKERELVAAISNSGGSTNYADSVKGRFTISRDNAKNTVYLQMNSLKPEDTAVYYCAADPYDLVWVEDYDYWGQGTQVTVSS | high polyreactivity |
| QVQLVESGGGLVQAGGSLRLSCAASGSTFYRYAMGWYRQAPGKERELVAAISSSGGSTYYADSVKGRFTISRDNAKNTVYLQMNSLKPEDTAVYYCNAAYRVRRFDYWGQGTQVTVSS | low polyreactivity |
| QVQLVESGGGLVQAGGSLRLSCAASGSTFYRYAMGWYRQAPGKERELVAAITWNGGSTYYADSVKGRFTISRDNAKNTVYLQMNSLKPEDTAVYYCNKVSRRDTYEYDYWGQGTQVTVSS | high polyreactivity |
| QVQLVESGGGLVQAGGSLRLSCAASGSTFYRYAMGWYRQAPGKERELVARITQNGGSTYYADSVKGRFTISRDNAKNTVYLQMNSLKPEDTAVYYCADRWISVLSYGKYDYWGQGTQVTVSS | high polyreactivity |
| QVQLVESGGGLVQAGGSLRLSCAASGSTFYRYDMGWYRQAPGKERELVAAITSVGSTKYADSVKGRFTISRDNAKNTVYLQMNSLKPEDNAVYYCNVDYIDWGQWYTNYPLSGYDYWGQGTQVTVSS | low polyreactivity |
| QVQLVESGGGLVQAGGSLRLSCAASGSTFYRYMGWYRQAPGKERELVADISSSGDTYYADSVKGRFTISRDNAKNTVYLQMNSLKPEDTAVYYCAADVSVGYWWSYSMDYWGQGTQVTVSS | high polyreactivity |

| Sequence | polyreactivity (PSR sort gate) |
| --- | --- |
| QVQLVESGGGLVQAGGSLRLSCAASGSTFYRYTMGWYRQAPGKERELVAAISRSGGRTYYADSVKGRFTISRDKAKNTVSVQMNSLKPEDTAVYYCAAARRYGRYFGYPMEYWGQGTQVTVTS | high polyreactivity |
| QVQLVESGGGLVQAGGSLRLSCAASGSTFYSNAMGWYRQAPGKERELVAGISGSGGSSYYADSVKGRFTFSRDNAKNTVKLQMNSLKPEDTAVYYCNARKTRSYFRFDSWGQGTQVTVSS | low polyreactivity |
| QVQLVESGGGLVQAGGSLRLSCAASGSTFYSNAMGWYRQAPGKERELVARISWIGTSTYYADSVKGRFTISRDNAKNTVYLQMNSLKPEDTAVYDCAAGTVGPRRRRYIWLDYWGQGTQVTVSS | high polyreactivity |
| QVQLVESGGGLVQAGGSLRLSCAASGSTFYSYAMGWYRQAPGKEREFVAAITDSGGSTYYADSVTGRFTISRDNAKNTVYLQMNSLKPEDTAVYYCAKRQYQSYIRGPYYYWGQGTQVTVSS | low polyreactivity |
| QVQLVESGGGLVQAGGSLRLSCAASGSTFYSYAMGWYRQAPGKERELVAAISWDGGRTYYADSVKGRFTISRDNAKNTVYLQMNSLKPEDTAVYYCSADYPTYRHYYWGQGTQVTVSS | low polyreactivity |
| QVQLVESGGGLVQAGGSLRLSCAASGSTFYSYAMGWYRQAPGKERELVAAISWRGGSTYYADSVKGRFTISRDNAKNTVYLQMNSLKPEDPEVYYCAAYRGDGYEYWGQGTQVTVSS | high polyreactivity |
| QVQLVESGGGLVQAGGSLRLSCAASGSTFYSYAMGWYRQAPGKERELVAAITSGGSTNYADSVKGRFTISRDNAKNTVYLQMNRLKPEDTAVYYCARKYWHRSYGYDYWGQGTQVTVSS | low polyreactivity |
| QVQLVESGGGLVQAGGSLRLSCAASGSTFYSYAMGWYRQAPGKERELVAAITYSDGDTYYADSVKGRFTISRDNAKNTVYLQMNSLKPEDTAVYYCAAEYQGQPGTGNLEYWGQGTQVTVSS | low polyreactivity |
| QVQLVESGGGLVQAGGSLRLSCAASGSTFYSYAMGWYSQAPGKERELVARIRWSGYTYSADSVKGRFTISRDNAKNTVYLQMNSLKPEDTAVSYCAAKRGFHIADYWGQGTQVTVSS | high polyreactivity |
| QVQLVESGGGLVQAGGSLRLSCAASGSTFYTNAMGWSRQAPGKQREFVAALSGRGSNTYYADSVKGRFTISRYNAKNTVYLQMNSLKPEDTAVYYCAARRLAGFGYWGQGTQVTVSS | high polyreactivity |
| QVQLVESGGGLVQAGGSLRLSCAASGSTFYTNAMGWYRQAPGKERELVAAISYSGGGTYYADSVKGRFTISRDNAKNTVYLQMNSLKPEDTAVYYCAADTLQRAFVLYDYWGQGTQVTVSS | high polyreactivity |
| QVQLVESGGGLVQAGGSLRLSCAASGSTFYTNDMGWYRQAPGKERELVAAITSAGNTNYADSVKGRFTISRDNAKNTVYLQMNSLKPEDTAVYYYYYYQYDYWGQGTQVTVSS | low polyreactivity |
| QVQLVESGGGLVQAGGSLRLSCAASGSTFYTYAMGWYRQAPGKERELVAAISWRTGSTYYADSVKGRFTISRDNAKNTVYLQMNSLKPEDTAVYYCATDYYIDTWDWYEEYEYWGQGTQVTVSS | high polyreactivity |
| QVQLVESGGGLVQAGGSLRLSCAASGSTFYTYAMGWYRQAPGKERELVATISRGGGRTYYADSVKGRFTISRDNAKNTVYLQMNSLKPEDTAVYYCAARLYSSSYNSEQYYYWGQGTQVTVSS | high polyreactivity |
| QVQLVESGGGLVQAGGSLRLSCAASGSTFYTYTMGWYRQAPGKERELVAAISSSGGDTYYADSVKGRFTISRDNAKNTVYLQMNSLKPEDSAVYYCAALGAFPSLEFDYWGQGTQVTVSS | low polyreactivity |
| QVQLVESGGGLVQAGGSLRLSCAASGSTFYTYTMGWYRQAPGKERELVAAITWSGGSTYYADSVKGRFTISRDNANNTVYLQMNSLKPEDTAVYYCNADQDYKGARPSGMDYCGQGTQVTVSS | low polyreactivity |
| QVQLVESGGGLVQAGGSLRLSCAASGSTFYVNAMGWYRQAPGTERELVAAIRSAGRTNYADSVKGRFTSSRDNAKNTVYLQMNSLKPEDTAVYYCAAEVPHWPYYGRLHDRDYWGQGTQVTVSS | low polyreactivity |
| QVQLVESGGGLVQAGGSLRLSCAASGSTFYVNTMGWYRQAPGKERELVAAITATGASTYYADSVKGRFTISRDNAKNTVYLQMNSLKPEDTAVYYCNVRLRIRSGYWGQGTQVTVSS | high polyreactivity |
| QVQLVESGGGLVQAGGSLRLSCAASGSTFYVNTMGWYRQAPGKERELVATITASDGSTYADSVKGRFTISRDNAKNTVYLQMNSLKPDDTAVYYCNADTRTQGPYSAPYYREMNYWGQGTQVTVSS | low polyreactivity |
| QVQLVESGGGLVQAGGSLRLSCAASGSTFYVYAMGWYRQAPGKERELVAAISRSGGSTYYADSVKGRFTISRDNAKNTVYLQMNSLKPEDTAVYYCAARGYSTYPMDYWGQGTQVTVSS | high polyreactivity |
| QVQLVESGGGLVQAGGSLRLSCAASGSTFYVYAMGWYRQAPGKERELVAAITSGTSTYYADSVKGRFTISRDNAKNTVYLQMNSLKPEDTAVYYCAAYSYYYRFPYYYWGQGTQVTVSS | high polyreactivity |
